From patent US20150335761A1, “COMPOSITIONS AND METHODS FOR CONTRACEPTION” (priority 2012, published 2015)

What was measured:
[1] = in vitro release study of PADM in human plasma; assay type: in vitro ADME; conditions: over 6-7 h in human plasma
Source text: (§1) Activated CB cleaves the Phe-Lys dipeptide at the Lys-PABC bond. Then, the exposed PABC spacer spontaneously decarboxylates upon deacylation and free ADM molecules are released.

Cathepsin B (CB) = Cathepsin B (CB) (Homo sapiens, UniProt P07858); experiment: in vitro release study of PADM in CB solution; assay type: biochemical; conditions: 37° C., read-out: half-life of ADM release
Source text: as §1

COc1cccc2c1C(=O)c1c(O)c3c(c(O)c1C2=O)C[C@@](O)(C(=O)CO)C[C@@H]3O[C@H]1C[C@H](NC(=O)OCc2ccc(NC(=O)[C@H](CCCCN)NC(=O)[C@H](Cc3ccccc3)NC(C)=O)cc2)[C@H](O)[C@H](C)O1 [PADM, Ac-Phe-Lys-PABC-ADM]
changes (ADM release) in human plasma [1]: no changes were observed
half-life (Cathepsin B (CB)): 16 min
